Measured values reported in patent publication US20230393125A1 (Hoffmann-La Roche, published 2023).

Target: T1, recombinant cynomolgus CCL2 (cynomolgus monkey, UniProt P61274 24-99)
T1 construct: also called cyCCL2; cynomolgus monkey CCL2
Experiment: Gyrolab sandwich assay; detection reagent
Description: A Gyrolab™ based method was used in this example. Recombinant cynomolgus CCL2 samples were prepared in assay buffer (PBS, 0.1% (v/v) Tween-20, 1% BSA) and analyzed on a Gyrolab Xplore. […] All reagents and samples were transferred to a 96-well PCR plate and loaded into the instrument together with a Gyrolab BioAffy 200 nL disc (Gyros Protein Technologies AB). A three-step assay protocol (200-3W-001) was selected. […] Each reagent reaches the column at the same time after a short spinning step is applied to the disc. The columns were washed with PBS with 0.05 Tween after each step and finally laser induced fluorescence values were recorded within the instrument. A non-linear 4-parameter curve-fitting function (Wiemer-Rodbard) was applied to the averaged raw data to obtain a calibration curve.

B1: humanized anti-CCL2 antibody 11K2 (CCL2-0002) (antibody, V domains shown)
VH: QVQLVQSGAEVKKPGSSVKVSCKASGLTISDTYMHWVRQAPGQGLEWMGRIDPANGNTKFDPKFQGRVTITADTSTSTAYMELSSLRSEDTAVYYCARGVFGFFDYWGQGTTVTVSS
VL: DIQMTQSPSSLSASVGDRVTITCKATEDIYNRLAWYQQKPGKAPKLLISGATSLETGVPSRFSGSGSGTDYTLTISSLQPEDFATYYCQQFWSAPYTFGGGTKVEIK
modifications: Used as a digoxigenin or Alexa 647 conjugate; conjugation sites not stated.
notes: Detection reagent; also called Humanized 11K2; 11K2-Dig
Question: Does B1 bind?
Answer: Result: binds
